# From US20050154189A1 (MAXYGEN, published 2005)
# Where a chain is given by its changes, count along the chain named.
# B1: Round 1 CD28BP-126 (ligand)
# chain: ITPKSVTKRVKETVMLSCDYSTSTEELTSLRIYWQKDSKMVLAILPGKVQVWPEYKNRTITDMNDNPRIVILALRLSDSGTYTCVIQKPDLKGAYKLEHLTSVRLMIRADFPVPTINDLGNPSPNIRRLICSTSGGFPRPHLYWLENGEELNATNTTVSQDPGTELYMISSELDFNVTNNHSIVCLIKYGELSVSQIFPWSKPKQEPPIDQLPFWVIIPVSGALVLTAVVLYCLACRHVARWKRTRRNEETVGTERLSPIYLGSAQSSG
# notes: also called R1clone 126; Clone 126
# B2: Round 2 CD28A4-5* (ligand)
# chain: B1 chain with S21N, D90V, V158L, G163E, E165K
# B3: Round 2 CD28A6-1 (ligand)
# chain: B1 chain with S21N, D90V, T101A, G163E, E165K, W215R, V229I
# B4: Round 2 CD28A6-9 (ligand)
# chain: B1 chain with S21N, D90V, T101A, W215L
# B5: Round 2 CD28A8-4 (ligand)
# chain: B1 chain with S21N, D90V
# B6: Round 2 CTLA4BP-5x4-1f (ligand)
# chain: VIHVTKEVKEVATLSCGHNVSVEELAQTRIHWQKEKKMVLTMMSGDMNIWPEYKNRTIFDITNNLSIVILALRPSDEGTYECVVLKYEKDAFKREHLAEVMLSVKADFPTPSISDFEIPTSNIRRIICSTSGGFPEPHLFWLENGEELNAINTTVSQDPETELYTVSSKLDFNMTTNHSFMCLIKYGHLRVNQTFNWNTPKQEHFPDNLLPSWAITLISVNGIFVICCLTYCFAPRCRERRRNERLRRESVCPV
# B7: Round 2 CTLA4BP-5x4-11d (ligand)
# chain: VIHVTKEVKEVATLSCGLNVSVEELAQTRIHWQKEKKMVLTMMSGDMNIWPEYKNRTIFDITNNLSIVILALRPSDEGTYECVVLKYDKDAFKREHLAEVTLSVKADFPTPSISDFEIPPSNIRRIICSTSGGFPEPHLSWLENGEELNAINTTVSQDPETELYTVSSKLDFNMTANHSFVCLIKYGHLRVNQTFNWNTPKQEHFPDNLLPSWAITLISVNGIFVICCLTYRFAPRCRERKSNERLRRESVRPV
# B8: Round 2 CTLA4BP-5x4-12c (ligand)
# chain: B6 chain with T120P, V220A, C232R, R241K, R242S, R245T, C252R
# notes: Full-length clone on transiently or stably transfected 293 cells; The end 288 is the end of the entry as counted; also called R2 CTLA-4BP 5x4-12c; clone 12c
# B9: Round 2 CTLA4BP-5x5-2e (ligand)
# chain: B6 chain with H18L, T120P, F140S, T165A, R245T, C252R
# B10: Round 2 CTLA4BP-5x5-6e (ligand)
# chain: B6 chain with S114T, T120P, F140S, N152S, P200T, V220A, Y231H, R241K, C252R
# B11: Round 2 CTLA4BP-5x6-9d (ligand)
# chain: B6 chain with F140S, T176A, M181V, C252R
# B12: Round 2 CTLA4BP-5x8-1f (ligand)
# chain: B6 chain with S114T, T120P, T130A, T165A, K185R, R241K, R242S, C252R
# B13: Round 2 CTLA4BP-5x9-12c (ligand)
# chain: B6 chain with S114T, T120P, F140S, V155A, R241K, R242S, C252R
# B14: Round 2 CTLA4BP 2x4-g9 (ligand)
# chain: VIHVTKEVKEVATLSCGHNVSVEELAQTRIYWQKDKKMVLTMMSGDMNIWPEYKNQTIFDITNNLSIVILALRPSDEGTYECVVLKYEKDAFKQEHLAEVMLSVKADFPTPSISDFEIPPSNIRRIICSTSGGFPEPRLAWMEDGEELNAISTTVSQDPGTELCTVSSKLDFNMTTNHSFMCLIRYGHLRVNQTFNWNTPKQEHFPDNLLPSWAITLISVKGIFVICCLTYCFAPRGRERKSNGRLRRESVHPV
# B15: Round 2 CTLA4BP 2x2-f3 (ligand)
# chain: VIYVTKEVKEVATLSCGHNVSVEELAQTRIYWQKEKKMVLIMMSGDMNIWPEYKNRTIFDITNNLSIVILALRPSDEGTECVVLKYEKDAFKREHLAEVTLSVKADFPTPSISDFEIPPSNIRRIICSTSGGFPEPHLSWLENGEELNAINTTVSQDPGTELYTVSSKLDFNMTTNHSFMCLIKYGHLRVNQTFNWNTPKQEHFPDNLLPSWAITLISVNGIFVICCLTYCFAPRCRERRRNERLRRESVCPV
# B16: Round 2 CTLA4BP 2x1-c9 (ligand)
# chain: VIHVTKEVKEVATLSCGHNVSAEELAQTRIYWQKEKKMVLTMMSGDMNIWPEYKNRTIFDITNNLSIVILALRPSDEGTYECVVLEYEKDAFKREHLAEVMLSVKADFPTPSITDFEIPTSNIRRIICSTSGGFPEPRLAWMEDGEELNAISTTASQDPETELYTVSSKLDFNMTTNHSFMCLIKYGHLRVNQTFNWNTPKQEHFPDNLLPSWAITLISVNGIFVICCLTHCFAPRCRERRRNERLRRESVCPV
# B17: Round 2 CTLA4BP 2x1-e2 (ligand)
# chain: VIHVTKEVKEVATLSCGHNVSDEELAQTRIHWQKEKKMVLTMMSGDMNIWPEYKNRTIFDITNNLSIVILALRPSDEGTYECVVLKYEKDAFKREHLAEVTLSVKADFPTPSISDFEIPPSNIRRIICSTSGGFPEPHLSWLENGEELNAINTTVSQDPGTELYTVSSKLDFNMTTNHSFMCLIKYGHLRVNQTFNWNTPKQEHFPDNLLPSAITLISANGIFVICCLTYCFAPRCRERRRNERLRRESIHPV
# B18: Round 2 CTLA4BP 2x3-h2 (ligand)
# chain: VIHVTKEVKEVATLSCGHNVSVEELAQTRIYWQKEKKMVLTMMSGDMNIWPEYKNRTIFDITNNLSIVILALRPSDEGTYECVVLKYEKDAFKREHLAEVMLSVKADFPTPSISDFEIPPSNIRRIICSTPGGFPEPRLAWMEDGEELNAISTTVSQDPGTELYAVSSKLDFNMTTNHSFMCLIKYGHLRVNQTFNWNTTKQEHFPDNLLPSWAITLISVKGIFVICCLTYCFAPRWRERKSNERLRRESVRPV
# B19: Round 2 CTLA4 A-H3-6 (ligand)
# chain: GISQVTKSVKEMAALSCDYNISIDELARMRIYWQKDQQMVLSIISGQVEVWPEYKNRTFPDIINNLSLMILALRLSDKGTYTCVVQKNENGSFRREHLTSVTLSIRADFPVPSINDLGNPSPNIRRLICSTSGGFPRPHLYWLENGEELNATNTTLSQDPETKLYMISSELDFNMTSNHSFLCLVKYGDLTVSQTFYWQESKPTPSANQHLTWTIIIPVSAFGISVIIAVILTCLTCRNAAIRRQRRENEVEMQSCSQSP
# B20: Round 2 CTLA4 A-B4-6 (ligand)
# chain: ITPKSVTKRVKETVMLSCDYNTSTEELTSLRIYWQKDSKMVLAILPGKVQVWPEYKNRTITDMNDNPRIVILALRLSDKGTYTCVVQKNENGSFRREHLTSVTLSIRADFPVPTINDLGNPSPNIRRLICSTSGGFPRPHLYWLENGEELNATNTTLSQDPETKLYMISSELDFNMTSNHSFLCLVKYGDLTVSQTFYWQESKPTPSANQHLTWTIIIPVSAFGISVIIAVILTCLTCRNAAIRRQRRENEVEMQSCSQSP
# B21: Round 2 CTLA4 A-E2-6 (ligand)
# chain: B20 chain with K79S, T103R, S105M, S158P
# B22: Round 2 CTLA4 A-F1-6 (ligand)
# chain: B20 chain with N21S, T103R, S105M
# B23: Round 2 CTLA4 A-F10-1 (ligand)
# chain: B20 chain with F197L
# B24: Round 2 CTLA4 A-H4-5* (ligand)
# chain: ITPKSVTKRVKETVMLSCDYSTSTEELTSLRIYWQKDSKMVLAILPGKVQVWPEYKNRTITDMNDNPRIVILALRLSDKGTYTCVVQKNENGSFRREHLTSVTLSIRADFPVPSITDIGHPAPNVKRIRCSASGGFPEPRLYWLENGEELNATNTTVSQDPGTELYMISSELDFNVTNNHSIVCLIKYGELSVSQIFPWSKPKQEPPIDQLPFWVIIPVSGALVLTAVVLYCLACRHVARWKRTRRNEETVGTERLSPIYLGSAQSSG
# B25: Round 2 CTLA4 A-C9-9 (ligand)
# chain: SGITPKSVTKRVKETVMLSCDYSTSTEELTSLRIYWQKDSKMVLAILPGKVQVWPEYKNRTFPDIINNLSLMILALRLSDRGTYTCVVQKNENGSFRREHLTSVTLSIRADFPVPSITDIGHPAPNVKRIRCSASGGFPEPRLAWMEDGEELNAVNTTVDQDLDTELYSVGSELDFNVTNNHSIVCLIKYGELSVSQIFPWSKPKQEPPIDQLPFWVIIPVSGALVLTAVVLYCLARRHVARWKRTRRNEETVGTERLSPIYLGSAQSSG
# B26: Round 1 CTLA4BP-7 (ligand)
# chain: VIHVTNEVKEVATLSCGHNVSGEELAQTRIYWQKEKKMVLTMMYGDMNIWPEYKNRTIFDITNNLSIVILALRPSDEGTYECVVLKYEKDAFKREHLAEVMLSVKADFPTPSITDFEIPPSNIRRIICLTSGGFPEPRLAWMKDGEELNAISTTVSQDPGTELYAVSSKLDFNMTTNHSFMCLIKYGHLRVNQTFSWNTPKQEHFPDNLLPSWAITLISVNGIFVICCLTYCFAPRCRERRRNERLRRESVRPV
# notes: also called R1-7; R1 CTLA-4BP-7
# B27: Round 2 CTLA4BP-5x2-10c (ligand)
# chain: VIHVTKEVKEVATLSCGHNVSVEELAQTRIHWQKEKKMVLTMMSGDMNIWPEYKNRTIFDITNNLSIVILALRPSDEGTYECVVLKYEKDAFKREHLAEVMLSVKADFPTPSITDFEIPPSNIRRIICSTSGGFPEPHLSWLENGEELNAINTTVSQDPETELYTVSSKLDFNMTANHSFVCLIKYGHLRVNQTFNWNTPKQEHFPDNLLPSWAITLISVNGIFVICCLTYCFAPRCRERRNETLRRESVRPV
# B28: Round 2 CTLA4BP-5x2-11d (ligand)
# chain: B6 chain with S114T, T120P, N177D, H178R, M181V, V220A, R241K, R242S, R245T, C252R
# Legend:
# Soluble CD28-Ig = molecular target: T1, Soluble CD28-Ig (human, UniProt P10747 19-152, biotin-conjugated (NHS-biotin) in the labelled-ligand FACS assays); assay: two-colour FACS profile on transfected cells; score of preference for CD28-Ig over CTLA-4-Ig vs WT hB7-1
# T1 construct: extracellular domain; Bought from R&D Systems; also called sCD28-Ig; CD28-Ig Fc; not shown: Fc portion of human IgG1
# Soluble CTLA-4-Ig = molecular target: T2, Soluble CTLA-4-Ig (human, UniProt P16410 36-161, FITC-conjugated in the two-colour FACS assays; unlabelled and detected with FITC goat anti-human IgG in the concentration-dependent assay); assay: two-colour FACS profile on transfected cells; score of preference for CTLA-4-Ig over CD28-Ig vs WT hB7-1
# T2 construct: extracellular domain; Bought from R&D Systems; also called sCTLA-4-Ig; CTLA-4-Ig Fc; not shown: Fc portion of human IgG1
# T2 sequence (P16410 36-161): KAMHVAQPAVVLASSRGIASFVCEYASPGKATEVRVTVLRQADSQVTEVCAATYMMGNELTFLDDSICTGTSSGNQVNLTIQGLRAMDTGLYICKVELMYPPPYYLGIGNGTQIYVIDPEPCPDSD
Binder,Binding Score (Soluble CD28-Ig),Binding Score (Soluble CTLA-4-Ig)
B1,1,–
B2,1,–
B3,1,–
B4,1,–
B5,1,–
B6,–,2
B7,–,2
B8,–,2
B9,–,2
B10,–,2
B11,–,2
B12,–,2
B13,–,2
B14,–,1
B15,–,1
B16,–,1
B17,–,1
B18,–,0
B19,–,1
B20,–,1
B21,–,1
B22,–,1
B23,–,1
B24,–,1
B25,–,0
B26,–,1
B27,–,2
B28,–,2
